{
  "source": "patent US8207309B2",
  "about": "“Human synthetic single-chain antibodies directed against the common epitope of mutant P53 and their uses” (Ramot at Tel-Aviv University Ltd., priority 2005, dated 2012)",
  "molecules": {"B1": {"name": "A4 scFv: human scFv clone; VL CDRs SEQ ID NOs:36-38 (protein)", "scFv": "VQLLESGGGLVQPGGSLRLSCAASGFTFSGYWMHWVRQAPGKGLEWVSEISGSGDSTHYGDSVKGRFTISRDNSKNTLYLQMNSLRAEDTAVYYCARGRNGSLDYWGQGTLVTVSSGSAGGGGSGGGGSGGGGSDIVLTQPPSASGTPGQRVTISCTGNSSNIGAGYDVHWYQQLPGKAPKLLIYSNNQRPSGVPDRFSGSKSGTSASLAISGLRSEDEADYYCAAWDDSLSSVVFGGGTKLTV"}, "B2": {"name": "B6 scFv: human scFv clone; VL CDRs SEQ ID NOs:27-29 (protein)", "scFv": "VQLLESGGGLVQPGGSLRLSCAASGFTFSGYWMHWVRQAPGKGLEWVSEISGSGDSTHYGDSVKGRFTISRDNSKNTLYLQMNSLRAEDTAVYYCARGRNGSLDYWGQGTLVTVSSGSAGGGGSGGGGSGGGGSDIVLTQPPSASGTPGQRVTISCTGSSANIGAGYDVHWYQQLPGKAPKLLIYDNDKRPSGVPDRFSGSKSGTSASLAISGLRSEDEADYYCAAWDDRLSGVVFGGGTKVTV"}, "B3": {"name": "A6 scFv: human scFv, SEQ ID NO:115; VL CDRs SEQ ID NOs:60-62 (protein)", "scFv": "VQLLESGGGLVQPGGSPRLSCAASGFTFSGYWMHWVRQAPGKGLEWVSEISGSGDSTHYGDSVKGRFTISRDNSKNTLYLQMNSLRAEDTAVYYCARGRNGSLDYWGQGTLVTVSSGSAGGGGSGGGGSGGGGSDIVLTQPPSASGTPGQRVTISCTGGRFNIGDYAVNWYQQLPGKAPKLLIYDNDRRPSGVSDRFSGSKSGTSASLAISGLRSEDEADYYCAAWDDSLDGLVFGGGTQLTV", "modifications": "Single chain Fv"}},
  "key": {"[1]": {"target": "T1, FRHSVV peptide (SEQ ID NO:1; common epitope of mutant p53) (Homo sapiens, UniProt P04637)", "T1 construct": "A biotin conjugate of the peptide (FRHSVV)", "experiment": "Binding specificity ELISA of scFvs (FIG. 9)"}, "[2]": {"tested_on": "BSA, Streptavidin, amyloid peptide (SEQ ID NO:2), MAP-PrP, PaP", "conditions": "ELISA, FIG. 9, SEQ ID NOs:2-4"}, "[3]": {"target": "T2, common epitope of mutant p53 (FRHSVV; SEQ ID NO:1) (Homo sapiens, UniProt P04637)", "T2 construct": "A biotin conjugate of the peptide (FRHSVV)", "experiment": "BIAcore analysis of scFv binding to immobilized FRHSVV-biotin peptide", "conditions": "FRHSVV-biotin on streptavidin chip, 1:1 Langmuir model, read-out: affinity (binding constant) towards the common epitope (SEQ ID NO:1)", "procedure": "Binding was determined using the BIACore at the indicated concentrations of antibodies. RU=resonance units. The binding constant was determined using the software that is supplied with the BIAcore instrument (wwwdotBiacoredotcom).\nBIAcore Analysis—Real time analysis of the interaction between scFvs and FHRSVV-biotin were determined using BIAcore technology (Biacore AB, Uppsala, Sweden) according to manufacturer's instructions. The peptide FRHSVV-biotin was immobilized on a streptavidin coated sensor chip surface SA. The amount of immobilized peptide was 200 pg/mm^2, the binding was in HBS buffer (10 mM Hepes PH 7.4, 150 mM NaCl, 0.005% Tween-20, 3.4 mM EDTA). Several concentrations of purified scFv (62 nM, 125 nM, 250 nM, 1 μM and 2 μM) were injected at a flow rate of 20 μl/minute. […] Regeneration of the sensor chip was performed using 10 μl of 10 mM HCl. The kinetics parameters of the binding reactions were determined by BIAevaluation 4.0 Software (Biacore AB) using the 1:1 Langmuir model. The dissociation rate (off-rate) constant Kd and the association rate constant (on-rate) Ka were determined simultaneously according to manufacturer's instructions.\nThe scFv F2 and E6 antibodies display high affinity binding of the mutant epitope—To determine the affinity binding of the isolated scFvs towards the target peptide (SEQ ID NO:1), the BIAcore technology was employed. […]"}},
  "note": "Entries after “also recorded” stand apart in the source; their conditions may differ. Like-named read-outs stand apart in the source and are kept apart here.",
  "data": [
    {"molecule": "B1", "values": [
      {"measurement": "binding to peptide of the common epitope of mutant p53 (SEQ ID NO:1)", "setting": "[1]", "value": "high affinity"},
      {"measurement": "binding to peptide of the common epitope of mutant p53 (SEQ ID NO:1)", "setting": "[1]; listed as A4", "value": "highly specific; also recorded: high binding specificity"},
      {"measurement": "binding to the other peptides or proteins tested", "setting": "[2]", "value": "low affinity"}
    ]},
    {"molecule": "B2", "values": [
      {"measurement": "binding to the other peptides or proteins tested", "setting": "[2]", "value": "low affinity"}
    ]},
    {"molecule": "B3", "values": [
      {"measurement": "Kd", "setting": "[3]", "value": 23, "unit": "nM"}
    ]}
  ]
}
